In patent US20200283521A1 (GRANULAR THERAPEUTICS, published 2020):
Positions count from the first letter of the chain named. In names and notes the source's numbering stands.

B1: MH1, IgG1-3M format (antibody, V domains shown)
VH: QVQLVQSGAEVKKPGASVKVSCKASGYTFTDYYMNWVRQAPGQGLEWMGRIYPGSGNTYYAQKFQGRVTMTRDTSTSTVYMELSSLRSEDTAVYYCARGVYYYDYWGQGTLVTVSS
VL: DIQMTQSPSSLSASVGDRVTITCRASQGIRTNLAWFQQKPGKAPKSLIYAASSLQSGVPSRFSGSGSGTDFTLTISSLQPEDFATYYCQQYNSYPRTFGGGTKVEIK
notes: human IgG1 with L234A/L235A/G237A; also called C-KIT-MH1
B2: MH5-DI, IgG1-3M format (antibody, V domains shown)
VH: B1 VH
VL: B1 VL with N92A, S93N
B3: F-F2 (antibody, IgG1, V domains shown)
VH: B1 VH with Y103Q
VL: B1 VL with I29V, L33V, L54R
notes: IgG1; also called C-KIT-F-F2
B4: E-E10 (antibody, IgG1, V domains shown)
VH: B1 VH with Y101W, Y103F
VL: B1 VL with I29V, L33V, A50S
notes: IgG1; also called C-KIT-E-E10
B5: MH11 (antibody, IgG1, V domains shown)
VH: B1 VH
VL: B1 VL with S93A
notes: IgG1; also called C-KIT-MH11
B6: MH5.34 (antibody, IgG1, V domains shown)
VH: B1 VH with D31N, G54A, Y101W, Y103F, Y105S
VL: B1 VL with N92A, S93N
notes: IgG1; also called C-KIT-MH5.34
B7: MH5.1 (antibody, IgG1, V domains shown)
VH: B1 VH with D31N, S55T, Y101W
VL: B1 VL with N92A, S93N
notes: IgG1; also called C-KIT-MH5.1
B8: MH5.24 (antibody, IgG1, V domains shown)
VH: B1 VH with Y32F, G54A, Y101W, Y103F, Y105T
VL: B1 VL with N92A, S93N
notes: IgG1; also called C-KIT-MH5.24
B9: MH5.35 (antibody, IgG1, V domains shown)
VH: B1 VH with D31N, G54A, Y101W, Y103F, Y105T
VL: B1 VL with N92A, S93N
notes: IgG1; also called C-KIT-MH5.35
B10: MH5.23 (antibody, IgG1, V domains shown)
VH: B1 VH with Y32F, G54A, Y101W, Y103F, Y105S
VL: B1 VL with N92A, S93N
notes: IgG1; also called C-KIT-MH5.23
B11: MH5.2 (antibody, IgG1, V domains shown)
VH: B1 VH with Y32F, S55T, Y101W
VL: B1 VL with N92A, S93N
notes: IgG1; also called C-KIT-MH5.2
B12: chimeric anti-C-KIT antibody m37M, human IgG1 (antibody, V domains shown)
VH: QVQLKQSGAELVRPGASVKLSCKASGYTFTDYYINWVKQRPGQGLEWIARIYPGSGNTYYNEKFKGKATLTAEKSSSTAYMQLSSLTSEDSAVYFCARGVYYFDYWGQGTTLTVSS
VL: DIVMTQSQKFMSTSVGDRVSVTCKASQNVRTNVAWYQQKPGQSPKALIYSASYRYSGVPDRFTGSGSGTDFTLTISNVQSEDLADYFCQQYNSYPRTFGGGTKLEIKR
B13: MH5.6 (antibody, IgG1, V domains shown)
VH: B1 VH with Y32H, S55T, Y101W, Y103F, Y105E
VL: B1 VL with N92A, S93N
notes: IgG1
B14: MH5.10 (antibody, IgG1, V domains shown)
VH: B1 VH with Y32H, S55A, Y101W, Y103F, Y105E
VL: B1 VL with N92A, S93N
notes: IgG1
B15: MH5.4 (antibody, IgG1, V domains shown)
VH: B1 VH with Y32H, S55T, Y101W, Y103F, Y105S
VL: B1 VL with N92A, S93N
notes: IgG1
B16: MH5.15 (antibody, IgG1, V domains shown)
VH: B1 VH with Y32F, S55T, Y101W, Y103F, Y105S
VL: B1 VL with N92A, S93N
notes: IgG1
B17: MH3 (antibody, IgG1, V domains shown)
VH: B1 VH
VL: B1 VL with A50S, S93A
notes: IgG1
B18: MH2 (antibody, IgG1, V domains shown)
VH: B1 VH
VL: B1 VL with A50S, N92A
notes: IgG1
B19: MH12 (antibody, IgG1, V domains shown)
VH: B1 VH
VL: B1 VL with I29V
notes: IgG1
B20: MH7 (antibody, IgG1, V domains shown)
VH: B1 VH
VL: B1 VL with A50S, R96H
notes: IgG1
B21: MH10 (antibody, IgG1, V domains shown)
VH: B1 VH
VL: B1 VL with A50S, N92T
notes: IgG1
B22: MH13 (antibody, IgG1, V domains shown)
VH: B1 VH
VL: B1 VL with I29V, S93A
notes: IgG1
B23: MH8 (antibody, IgG1, V domains shown)
VH: B1 VH
VL: B1 VL with A50S, N92S
notes: IgG1
B24: MH5, IgG1-3M format (antibody, V domains shown)
VH: B1 VH
VL: B1 VL with A50S, N92A, S93N
notes: human IgG1 with L234A/L235A/G237A
B25: h37M-IgG1-3M (antibody, V domains shown)
VH: QVQLVQSGAEVKKPGASVKLSCKASGYTFTDYYINWVRQAPGKGLEWIARIYPGSGNTYYNEKFKGRATLTADKSTSTAYMQLSSLRSEDTAVYFCARGVYYFDYWGQGTTVTVSS
VL: DIVMTQSPSSLSASVGDRVTITCKASQNVRTNVAWYQQKPGKAPKALIYSASYRYSGVPDRFTGSGSGTDFTLTISSLQPEDFADYFCQQYNSYPRTFGGGTKVEIK
notes: human IgG1 with L234A/L235A/G237A; also called C-KIT-h37M

biological target: T1, human C-KIT, full length, on cells (human, UniProt P10721 26-976); experiment: cell-based or functional assay

Row | Binder | TF-1 proliferation, fold less potent than h37M [fold]
1 | B1 | 26.5
2 | B2 | 244

biological target: T1, human C-KIT, full length, on cells; experiment: cell-based or functional assay; remark: another data set of the same source

Row | Binder | Human C-KIT CHO FabZAP IC50 (pM) | TF-1 FabZAP IC50 (pM) | TF-1 proliferation IC50 [nM]
3 | B1 | 8.7 | 51.1 | 2.86
4 | B2 | 12.6 | 53.7 | 26.3

biological target: T2, cynomolgus monkey C-KIT, full length, on CHO-K1 cells (cynomolgus monkey); experiment: cell-based or functional assay

Row | Binder | Cyno C-KIT CHO FabZAP IC50 (pM)
5 | B1 | 14
6 | B2 | 13.5

biological target: T3, human C-KIT-Fc (human, UniProt P10721 26-524); experiment: HTRF competition vs Tb-h37M IgG1
T3 construct: also called biotinylated human C-KIT-Fc; not shown: Fc part not described

Row | Binder | IC50 [µg/mL]
7 | B3 | 0.046
8 | B4 | 0.031
9 | B5 | 0.051

biological target: T4, cynomolgus monkey C-KIT-Fc (cynomolgus monkey); experiment: HTRF competition vs Tb-h37M IgG1
T4 construct: also called cyno C-KIT-Fc

Row | Binder | IC50 [µg/mL]
10 | B3 | 0.121
11 | B4 | 0.097
12 | B5 | 0.101

biological target: T3, human C-KIT-Fc; experiment: HTRF competition vs Tb-h37M IgG1; remark: another data set of the same source

Row | Binder | IC50 [µg/mL]
13 | B6 | 0.839
14 | B7 | 0.684
15 | B8 | 2.2
16 | B9 | 2.05
17 | B10 | 2.02
18 | B11 | 0.272

biological target: T4, cynomolgus monkey C-KIT-Fc; experiment: HTRF competition vs Tb-h37M IgG1; remark: another data set of the same source

Row | Binder | IC50 [µg/mL]
19 | B6 | 0.532
20 | B7 | 0.633
21 | B8 | 2.74
22 | B9 | 0.785
23 | B10 | 3.26
24 | B11 | 0.254

biological target: T4, cynomolgus monkey C-KIT-Fc; experiment: direct titration ELISA on coated C-KIT-Fc, IgG1 format

Row | Binder | EC50 (read off the curve) [µg/mL]
25 | B12 | ~0.1

biological target: T3, human C-KIT-Fc; experiment: as above

Row | Binder | binding result
26 | B13 | binds
27 | B14 | binds
28 | B15 | binds
29 | B16 | binds

biological target: T1, human C-KIT, full length, on cells; experiment: flow cytometry, C-KIT-transfected CHO-K1 cells, IgG1 format

Row | Binder | binding result
30 | B17 | binds
31 | B18 | binds

biological target: T1, human C-KIT, full length, on cells; experiment: as above; remark: another data set of the same source

Row | Binder | binding result
32 | B19 | binds
33 | B20 | binds
34 | B21 | binds
35 | B22 | binds
36 | B23 | binds

biological target: T1, human C-KIT, full length, on cells; experiment: as above; remark: another data set of the same source

Row | Binder | EC50 (read off the curve) [µg/mL]
37 | B6 | ~0.2
38 | B7 | ~0.2
39 | B8 | ~0.2
40 | B9 | ~0.1
41 | B10 | ~0.2
42 | B11 | ~0.2
43 | B12 | ~0.2

biological target: T2, cynomolgus monkey C-KIT, full length, …; experiment: as above

Row | Binder | EC50 (read off the curve) [µg/mL]
44 | B6 | ~0.2
45 | B7 | ~0.2
46 | B8 | ~0.2
47 | B9 | ~0.2
48 | B11 | ~0.2
49 | B12 | ~0.2

biological target: T3, human C-KIT-Fc; experiment: HTRF competition on human C-KIT-Fc against terbium-labelled h37M IgG1

Row | Binder | binding result
50 | B17 | binds
51 | B18 | binds
52 | B19 | binds
53 | B21 | binds
54 | B22 | binds
55 | B23 | binds

biological target: T3, human C-KIT-Fc; experiment: as above; remark: another data set of the same source

Row | Binder | binding result
56 | B20 | binds

biological target: T4, cynomolgus monkey C-KIT-Fc; experiment: HTRF epitope competition in solution; competitor IgG1-3M titrated against terbium-labelled h37M IgG1 on cyno C-KIT-Fc

Row | Binder | IC50 (read off the curve) [µg/mL]
57 | B1 | ~0.02
58 | B24 | ~0.02

biological target: T3, human C-KIT-Fc; experiment: HTRF epitope competition in solution; competitor IgG1-3M titrated against terbium-labelled h37M IgG1 on biotinylated human C-KIT-Fc

Row | Binder | IC50 (read off the curve) [µg/mL]
59 | B1 | ~0.01
60 | B24 | ~0.03

biological target: T3, human C-KIT-Fc; experiment: HTRF epitope competition in solution; unlabelled h37M IgG1-3M titrated against terbium-labelled h37M IgG1 on biotinylated human C-KIT-Fc

Row | Binder | IC50 (read off the curve) [µg/mL]
61 | B25 | ~0.01
